The text below walks through data of the RNAGym collection of RNA variant scans (doi:10.1073/pnas.2313332121).

B1: TPR t1 (parent)
chain: GACCAAUCUGCCCUCAGAGCUCGAGAACAUCUUCGGAUGCAGAGGAGGCAGGCUUCGGUGGCGCGAUAGCGCCAACGUCCUCAACCUCCAAUGCAUCCCACCACAUGAUGAUGCCUGAAGAGCCUUGGUUUUUUG

Variants of B1 are the subject of this series. Kind of series: polymerase ribozyme fitness, log enrichment relative to wild type (log ratio); higher = more active; in vitro selection for triplet polymerase activity. A digest of the protocol: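 One round of in vitro selection, in triplicate, was applied to PCR-built, transcribed mutant libraries of each subunit of a heterodimeric triplet polymerase ribozyme. The steps were annealing with a biotinylated primer, partner subunit and triplets, incubation frozen at −7 °C, gel excision of extended constructs, streptavidin-bead capture and RT-PCR. Fitness is the logarithm, base 2, of genotype enrichment over wild-type enrichment from inverse-variance-weighted replicate averages of Illumina-sequenced inputs and outputs, keeping genotypes with ≥10 input reads and ≥1 read per output.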
For the variant A90C C102U A111G, the “polymerase ribozyme fitness (log ratio)” value was -4.24. In the case of C98U U112G it was -3.32; in that of A91C G127A, -2.15.

On to G93C G113C, for which the “polymerase ribozyme fitness (log ratio)” value is -3.08.

Regarding G93C G120A, the “polymerase ribozyme fitness (log ratio)” value was found to be 1.58. The figure for U96G C123G is 1.1; for G93A C101U C123U it is 0.532.

Regarding G93C C94A, the “polymerase ribozyme fitness (log ratio)” value was -1.68. The figure for A95G A119G is 1.26; for A90U G110A it is -4.07. In the case of A91G G113A it was -1.95. In the case of C97U C101U C102A it was -4.12; in that of G93A U131C, -0.974; in that of A91U G93C G113C G135U, -3.6. With C99U G110A, the “polymerase ribozyme fitness (log ratio)” value is -5.27. As to A91U A121U, the “polymerase ribozyme fitness (log ratio)” value is 0.873. On to A91U U116G G120C G128U, for which the “polymerase ribozyme fitness (log ratio)” value was -4.65. The figure for A90U C101A is -3.3. In the case of C98G G135U it was -6.54. The figure for A91U U112G is -1.73; for C99U C101A A121G C124G it is -3.31; for G93U U112G G120C C123U it is -2.5. On to C94A C123G, for which the “polymerase ribozyme fitness (log ratio)” value was -0.728. The figure for C98U U126C is -1.99; for U92A C98U it is -4.66. The figure for A90G C94U C97A C124A is -0.528; for A90C G128C it is -3.68; for G93U G110U it is -2.46. In the case of C97U C104U A111U C124A it was -2.15. On to A91U U106G, for which the “polymerase ribozyme fitness (log ratio)” value was -4.85. In the case of C94U C98U G120U G127U it was -0.759; in that of A95G A111G, 0.572; in that of A90U G113A, -1.1. The figure for A90U G113C is -2.53; for C97G C101U A121C it is -2.97.

As to C94A G127U, the “polymerase ribozyme fitness (log ratio)” value was -1.5. In the case of A95U U116G it was -2; in that of A90G U112G U116C, -0.0889. For G93C G135A, the “polymerase ribozyme fitness (log ratio)” value was -1.71. In the case of U92A C114A it was -3.48. In the case of G93A G110A it was -1.24; in that of G93A G110C, -5.32. The figure for C97G C114U is -5.14. Consider C97A G117U, for which the “polymerase ribozyme fitness (log ratio)” value was -5.67. The figure for A91C G120U is -1.5; for C98A A121U it is -2.52. With C97U G128A, the “polymerase ribozyme fitness (log ratio)” value was -2.66. Take C97U U116G G135U: the “polymerase ribozyme fitness (log ratio)” value was -3.49.

As for G93A U132C, the “polymerase ribozyme fitness (log ratio)” value was -0.827. The figure for A95U G113A G122A is -3.26; for A91G G113C G120A it is -3.31. In the case of G93A C97U G127C it was -2.77; in that of C97U C124G, 1.72; in that of U96G C102G G113U, -5.71. With A90U A118U, the “polymerase ribozyme fitness (log ratio)” value is -0.274.

As to A95C C123G, the “polymerase ribozyme fitness (log ratio)” value is -0.428. In the case of C98U G113U it was -3.5; in that of C94A A118U, -0.204; in that of G93A A105C, -3.13. As for G93C G127C, the “polymerase ribozyme fitness (log ratio)” value was -1.82. With G93U G120U, the “polymerase ribozyme fitness (log ratio)” value is -1.4. The figure for G93C A111U is -5.12; for C98A U112A it is -3.24. In the case of A95C G120U U129A it was -1.76. The figure for A90U C98G C114G G117C C123U U126C is -5.73. Take A90U C97U U125A G127C U130G: the “polymerase ribozyme fitness (log ratio)” value is -3.85.

As to A90C C114A C124A U125C, the “polymerase ribozyme fitness (log ratio)” value was 0.0876. As to C94G C124G, the “polymerase ribozyme fitness (log ratio)” value worked out at 1.09. Consider U92C C115U, for which the “polymerase ribozyme fitness (log ratio)” value is -2.72. In the case of G93U A108G G120U it was -3.31; in that of G93A G113U, -3.19; in that of C99U U112C G117A G128A, -5.01. As for C97U A118U, the “polymerase ribozyme fitness (log ratio)” value is -2.1. The figure for A95C G113U is -3.39; for G93C G117U it is -2.87. The figure for C98U U106A G110U G120C is -2.16; for C98U U130G it is -0.947. In the case of A95U C102U C104A G110C G128U it was -5.5; in that of A90C U106C U116G A119G U125G, -1.75.

Regarding A91G C115G, the “polymerase ribozyme fitness (log ratio)” value was -4.4.

Turning to C94A A105C C114A A118U, the “polymerase ribozyme fitness (log ratio)” value is -1.05. The figure for U96G A111G U125G is -1.74. In the case of C99G it was -7.03; in that of C99U, -3.02.

As for C99A, the “polymerase ribozyme fitness (log ratio)” value was -6.24.

In the case of A95U C114G, the “polymerase ribozyme fitness (log ratio)” value is -2.97. As to C98U G117U G120C U132C, the “polymerase ribozyme fitness (log ratio)” value is -3.23. In the case of C94A U125A it was -0.423. The figure for C94A U125G is -1.1; for C94U G117C it is -3.83. The figure for U92G G120C is -1.74; for U96A A105U it is -4.09; for C99U A121U it is -0.669. Consider A100C A121C, for which the “polymerase ribozyme fitness (log ratio)” value amounted to 0.337. In the case of U96A U130C it was -0.978; in that of A95U U132A, -1.52; in that of A95G A121U, 2.11. In the case of U96G U109C it was -4.85; in that of C98A C124A, -2.34.

Consider G93A G122A, for which the “polymerase ribozyme fitness (log ratio)” value is -1.4.

For G93U G113C U125A, the “polymerase ribozyme fitness (log ratio)” value was -3.4. For the variant A95G G117A U133A, the “polymerase ribozyme fitness (log ratio)” value was -1.23. In the case of C97U A103U it was -5.3; in that of U96A G120U, -0.867; in that of A90U U92C U96C, -2.06. In the case of C94A G117U U125A it was -5.92; in that of C97U U129C, -1.16; in that of C99U C114A, -4.84. The figure for C94G A118U is -0.748. In the case of G93A U116A U130G, the “polymerase ribozyme fitness (log ratio)” value is -4.69.

Take G93A C101U A118G: the “polymerase ribozyme fitness (log ratio)” value is -0.63. With G93C A95C, the “polymerase ribozyme fitness (log ratio)” value is -0.938.

For the variant G93A C114A A119U G122C, the “polymerase ribozyme fitness (log ratio)” value was -3.4. In the case of C98G G110A it was -4.98; in that of U92G U125A, -2.96; in that of C99U G128U, -5.25. In the case of U92G A121C C123G it was -0.349; in that of G93C U130C, -0.714. For the variant A90U G117C A118C, the “polymerase ribozyme fitness (log ratio)” value was -3.48. In the case of U96C C123A it was 1.12; in that of C99U G120U, -3.34; in that of A95G C101A A111C, -1.91. In the case of C99A G110A it was -5.17. The figure for C99A G110U is -4.34; for A95U C102U U125G it is -4.42. In the case of C98G C115A, the “polymerase ribozyme fitness (log ratio)” value is -5.15.

As for C97G G113C G122U, the “polymerase ribozyme fitness (log ratio)” value is -5.4. In the case of G93U C97U it was -0.996; in that of U92A C115G C123G, -5.89; in that of C99G C124U, -6.43. For the variant C99A C124A, the “polymerase ribozyme fitness (log ratio)” value is -4.35. The figure for U92A A121U U125G is -1.83; for U92G G117C U129C U133C it is -4.13; for A95U A111U G120U it is -5.49. In the case of C94A U129G it was -1.07. In the case of A90G C102A it was -1.25; in that of C94A C101G C123G, -1.92; in that of C99A G127A, -5.8. Consider U96C C114G, for which the “polymerase ribozyme fitness (log ratio)” value was -2.45. The figure for U96C C114U is -2.44; for G93A U109A it is -5.41; for C98U A111C it is -2.13.

For the variant G93U C98U, the “polymerase ribozyme fitness (log ratio)” value was -2.33. The figure for C98U C99A A118U U130C is -5.55.

G93C C114A: the “polymerase ribozyme fitness (log ratio)” value is -1.83. In the case of G93C C114U it was -1.65; in that of G93A G128U, -1.66; in that of U96A U129C, -1.7. The figure for A91U C104A is -4.59; for A91U C104U it is -1.47. In the case of A90G C102A C124A it was 0.51; in that of G93U A100U, -1.72; in that of C97U C101A G122C C123A U125A, -1.66. As for C94U C123A, the “polymerase ribozyme fitness (log ratio)” value is 0.36.

On to G93C A100C U130A, for which the “polymerase ribozyme fitness (log ratio)” value is -2.66.

Consider A90U C104A G113C, for which the “polymerase ribozyme fitness (log ratio)” value was -3.66. The figure for U96G A111U is -4.9; for G93A U129A it is -1.36; for A90U G93A G110A U131G it is -5.42. The figure for U92G G120A A121C is -2.53. In the case of C99U U133G it was -2.59; in that of A91U G113U, -3.5; in that of C97G G120A A121U, -3.45. With A95C G110U, the “polymerase ribozyme fitness (log ratio)” value was -2.32.

As to A91U A111G, the “polymerase ribozyme fitness (log ratio)” value was -1.26. In the case of U96G U130G it was -1.28; in that of A91C C104U C123U, 0.398.
